Assays:
Test in all cases: single-molecule fluorescence
pMcsB = biological target: T1, pMcsB (Geobacillus stearothermophilus (printed …, UniProt P0DMM5))
T1 sequence: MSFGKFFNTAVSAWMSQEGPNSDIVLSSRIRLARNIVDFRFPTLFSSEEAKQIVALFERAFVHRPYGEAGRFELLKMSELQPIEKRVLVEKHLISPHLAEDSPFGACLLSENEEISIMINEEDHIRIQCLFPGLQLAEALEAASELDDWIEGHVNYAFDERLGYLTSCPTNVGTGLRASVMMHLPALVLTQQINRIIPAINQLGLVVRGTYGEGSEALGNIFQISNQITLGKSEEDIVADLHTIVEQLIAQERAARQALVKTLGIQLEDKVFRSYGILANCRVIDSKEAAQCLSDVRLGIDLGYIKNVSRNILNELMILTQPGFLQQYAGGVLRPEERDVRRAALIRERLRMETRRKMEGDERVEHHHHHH

pMcsB-HaloTag = biological target: T2, pMcsB-HaloTag (Geobacillus stearothermophilus (printed …, UniProt P0DMM5 1-363))
T2 sequence: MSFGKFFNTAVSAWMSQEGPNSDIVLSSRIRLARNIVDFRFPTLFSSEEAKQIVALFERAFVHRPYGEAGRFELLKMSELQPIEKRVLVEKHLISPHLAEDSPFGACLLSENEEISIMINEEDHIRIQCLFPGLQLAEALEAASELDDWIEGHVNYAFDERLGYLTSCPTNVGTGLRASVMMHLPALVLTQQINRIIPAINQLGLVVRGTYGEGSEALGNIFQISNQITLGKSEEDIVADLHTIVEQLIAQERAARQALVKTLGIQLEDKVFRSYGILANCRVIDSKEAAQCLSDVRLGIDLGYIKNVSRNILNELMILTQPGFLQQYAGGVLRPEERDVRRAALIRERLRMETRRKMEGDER

CtsR = biological target: T3, CtsR (Geobacillus stearothermophilus (printed …, UniProt C3W947))
T3 sequence: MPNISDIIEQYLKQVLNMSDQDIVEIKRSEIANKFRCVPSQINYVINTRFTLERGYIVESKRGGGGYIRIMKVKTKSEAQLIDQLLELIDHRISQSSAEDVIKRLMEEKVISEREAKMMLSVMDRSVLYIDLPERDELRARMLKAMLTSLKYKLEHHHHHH

B1: cognate Cy3 DNA probe (T7 label) (dsDNA)
DNA 1: CGATTACGGCAATTCAGGAATACCGCTAATG
DNA 2: GCTGATTAAGGTCAAATATAGTCAAAATAGAGTTCATTAGCGGTATTCCTGAATTGCCGTAATCG
DNA 3: CTCTATTTTGACTATATTTGACCTTAATCAGC
modifications: amino-C6-dT at T7 of strand 3 (S8 printed split around it)
- binding result (pMcsB): no binding
- binding result (pMcsB-HaloTag): no binding
- Kd (CtsR): ~12 nM

Source: article doi:10.1101/2024.12.26.630380
